Data from PMC12687421, “Characterisation of an allosteric site in PLCγ enzymes and implications for development of their specific inhibitors” (Biochemical Journal, 2025).

B1: K491D: PLCγ1 variant with K491D mutation in the nucleotide binding site (protein, UniProt P19174 2-1290, looked up, variant K491D)
1-phosphatidylinositol …: AGAASPCANGCGPGAPSDAEVLHLCRSLEVGTVMTLFYSKKSQRPERKTFQVKLETRQITWSRGADKIEGAIDIREIKEIRPGKTSRDFDRYQEDPAFRPDQSHCFVILYGMEFRLKTLSLQATSEDEVNMWIKGLTWLMEDTLQAPTPLQIERWLRKQFYSVDRNREDRISAKDLKNMLSQVNYRVPNMRFLRERLTDLEQRSGDITYGQFAQLYRSLMYSAQKTMDLPFLEASTLRAGERPELCRVSLPEFQQFLLDYQGELWAVDRLQVQEFMLSFLRDPLREIEEPYFFLDEFVTFLFSKENSVWNSQLDAVCPDTMNNPLSHYWISSSHNTYLTGDQFSSESSLEAYARCLRMGCRCIELDCWDGPDGMPVIYHGHTLTTKIKFSDVLHTIKEHAFVASEYPVILSIEDHCSIAQQRNMAQYFKKVLGDTLLTKPVEISADGLPSPNQLKRKILIKHKKLAEGSAYEEVPTSMMYSENDISNSIDNGILYLEDPVNHEWYPHYFVLTSSKIYYSEETSSDQGNEDEEEPKEVSSSTELHSNEKWFHGKLGAGRDGRHIAERLLTEYCIETGAPDGSFLVRESETFVGDYTLSFWRNGKVQHCRIHSRQDAGTPKFFLTDNLVFDSLYDLITHYQQVPLRCNEFEMRLSEPVPQTNAHESKEWYHASLTRAQAEHMLMRVPRDGAFLVRKRNEPNSYAISFRAEGKIKHCRVQQEGQTVMLGNSEFDSLVDLISYYEKHPLYRKMKLRYPINEEALEKIGTAEPDYGALYEGRNPGFYVEANPMPTFKCAVKALFDYKAQREDELTFIKSAIIQNVEKQEGGWWRGDYGGKKQLWFPSNYVEEMVNPVALEPEREHLDENSPLGDLLRGVLDVPACQIAIRPEGKNNRLFVFSISMASVAHWSLDVAADSQEELQDWVKKIREVAQTADARLTEGKIMERRKKIALELSELVVYCRPVPFDEEKIGTERACYRDMSSFPETKAEKYVNKAKGKKFLQYNRLQLSRIYPKGQRLDSSNYDPLPMWICGSQLVALNFQTPDKPMQMNQALFMTGRHCGYVLQPSTMRDEAFDPFDKSSLRGLEPCAISIEVLGARHLPKNGRGIVCPFVEIEVAGAEYDSTKQKTEFVVDNGLNPVWPAKPFHFQISNPEFAFLRFVVYEEDMFSDQNFLAQATFPVKGLKTGYRAVPLKNNYSEDLELASLLIKIDIFPAKENGDLSPFSGTSLRERGSDASGQLFHGRAREGSFESRYQQPFEDFRISQEHLADHFDSRERRAPRRTRVNGDNRL
B2: PLCγ1^wt: full-length wild-type human PLCγ1 enzyme (protein, UniProt P19174 1-1290, looked up)
chain: MAGAASPCANGCGPGAPSDAEVLHLCRSLEVGTVMTLFYSKKSQRPERKTFQVKLETRQITWSRGADKIEGAIDIREIKEIRPGKTSRDFDRYQEDPAFRPDQSHCFVILYGMEFRLKTLSLQATSEDEVNMWIKGLTWLMEDTLQAPTPLQIERWLRKQFYSVDRNREDRISAKDLKNMLSQVNYRVPNMRFLRERLTDLEQRSGDITYGQFAQLYRSLMYSAQKTMDLPFLEASTLRAGERPELCRVSLPEFQQFLLDYQGELWAVDRLQVQEFMLSFLRDPLREIEEPYFFLDEFVTFLFSKENSVWNSQLDAVCPDTMNNPLSHYWISSSHNTYLTGDQFSSESSLEAYARCLRMGCRCIELDCWDGPDGMPVIYHGHTLTTKIKFSDVLHTIKEHAFVASEYPVILSIEDHCSIAQQRNMAQYFKKVLGDTLLTKPVEISADGLPSPNQLKRKILIKHKKLAEGSAYEEVPTSMMYSENDISNSIKNGILYLEDPVNHEWYPHYFVLTSSKIYYSEETSSDQGNEDEEEPKEVSSSTELHSNEKWFHGKLGAGRDGRHIAERLLTEYCIETGAPDGSFLVRESETFVGDYTLSFWRNGKVQHCRIHSRQDAGTPKFFLTDNLVFDSLYDLITHYQQVPLRCNEFEMRLSEPVPQTNAHESKEWYHASLTRAQAEHMLMRVPRDGAFLVRKRNEPNSYAISFRAEGKIKHCRVQQEGQTVMLGNSEFDSLVDLISYYEKHPLYRKMKLRYPINEEALEKIGTAEPDYGALYEGRNPGFYVEANPMPTFKCAVKALFDYKAQREDELTFIKSAIIQNVEKQEGGWWRGDYGGKKQLWFPSNYVEEMVNPVALEPEREHLDENSPLGDLLRGVLDVPACQIAIRPEGKNNRLFVFSISMASVAHWSLDVAADSQEELQDWVKKIREVAQTADARLTEGKIMERRKKIALELSELVVYCRPVPFDEEKIGTERACYRDMSSFPETKAEKYVNKAKGKKFLQYNRLQLSRIYPKGQRLDSSNYDPLPMWICGSQLVALNFQTPDKPMQMNQALFMTGRHCGYVLQPSTMRDEAFDPFDKSSLRGLEPCAISIEVLGARHLPKNGRGIVCPFVEIEVAGAEYDSTKQKTEFVVDNGLNPVWPAKPFHFQISNPEFAFLRFVVYEEDMFSDQNFLAQATFPVKGLKTGYRAVPLKNNYSEDLELASLLIKIDIFPAKENGDLSPFSGTSLRERGSDASGQLFHGRAREGSFESRYQQPFEDFRISQEHLADHFDSRERRAPRRTRVNGDNRL
modifications: full-length
notes: full-length wild-type human PLCγ1 enzyme

Assay: Specific activity of PLC variants in assay 2 (A2)
Type: biochemical
Details: aldol substrate in solution
Description: The effect of nucleotide inhibition on PLC activity was measured using either a membrane-based assay with the fluorescent substrate (XY-69) incorporated into liposomes or using a small soluble substrate, Aldol 518 myo-inositol-1-phosphate (Aldol). Both methods utilised the same PLC assay buffer [20 mM Hepes-KOH, 70 mM KCl, 3 mM EGTA, 2.97 mM CaCl2, 2 mM TCEP and fatty acid-free bovine serum albumin (FAF-BSA; 50 μg/ml) (pH 7.5)]. Both assays were performed in low volume black 384-well plates (Greiner Bio-One), were composed of a final assay volume of 20 μl and were monitored in a Clariostar plate reader (BMG Labtech). […] The excitation and emission wavelengths were 588–15 and 642–20, respectively.
A CLARIOstar plate reader (BMG Labtech) was used to measure the production of the fluorescent product. The excitation and emission wavelengths were 485–15 and 520–20, respectively. Each experiment was performed in at least triplicate; in many cases, nine-fold replicates were generated. The enzyme progress curves were plotted for each concentration of nucleotide using Graphpad Prism software. The initial linear rate of product generation was calculated and converted to a % inhibition when compared with the rate of PLC activity in the absence of nucleotide. […]

Molecule	Specific Activity A2 [RFU/min/mg]
B1	18974 ± 796
B2	18606 ± 685
